Results as given in article PMC6150197, “NeoBOMB1, a GRPR-Antagonist for Breast Cancer Theragnostics: First Results of a Preclinical Study with [^67Ga]NeoBOMB1 in T-47D Cells and Tumor-Bearing Mice” (Molecules : A Journal of Synthetic Chemistry and Natural …, 2017).
Read-outs that look alike come from different tables or passages of the source.

What was measured:
[1] = male Swiss albino mice, iv 3 nmol total peptide, radio-HPLC
Procedure: [^67Ga]NeoBOMB1 was injected as a 100 μL bolus (11–22 MBq, 3 nmol total peptide) in the tail vein of male Swiss albino mice (30 ± 5 g, NCSR “Demokritos” Animal House Facility). Mice were anesthetized, and blood (0.5–1 mL) was collected from the heart at 5 and 30 min post injection (pi). Animals were euthanized and blood directly drawn from the heart was transferred in a pre-chilled EDTA-containing Eppendorf tube on ice. Blood samples were centrifuged for 10 min at 2000× g at 4 °C and plasma was collected. After addition of an equal volume of ice-cold MeCN the mixture was centrifuged for 10 min at 15,000× g at 4 °C. The supernatant was concentrated under a N2-flux at 40 °C to 0.05–0.1 mL, diluted with saline (0.4 mL), filtered through a 0.22 μm Millex GV filter (Millipore, Milford, MA, USA) and analyzed by RP-HPLC. The Symmetry Shield RP18 (5 μm, 3.9 mm × 20 mm) column was eluted at a flow rate of 1.0 mL/min with the following linear gradient: 100% A and 0% B to 50% A and 50% B in 50 min; (A = 0.1% aqueous TFA (v/v) and B = MeCN). The tR of the intact radiopeptide was determined by coinjection with the [^67Ga]NeoBOMB1 reference in the HPLC.

[2] = system: T-47D Xenograft-Bearing SCID Mice; experiment: in vivo; settings: T-47D tumor, 4 h pi, mean ± sd, n = 4
Procedure: (§1) Female SCID mice (15 ± 3 g, six weeks of age animals at the day of arrival, NCSR “Demokritos” Animal House Facility) were acclimatized under aseptic conditions and treated with estrogens (receiving 4 mg/L β-estradiol, Sigma-Aldrich, St. Louis, MO, USA, in their drinking water,) for a week prior to inoculation. A ≈ 150 μL bolus containing a suspension of ≈1.2 × 10^7 freshly harvested human T-47D cells suspended in Matrigel (Corning Life Sciences, Inc., Bedford, MA, USA) was subcutaneously injected in their flanks. The animals were kept under estrogen treatment for additional 8 weeks till they developed well-palpable tumors (100–200 mg) at the inoculation sites.
(§2) On the day of the experiment animals were allowed access to water, but not to food. Animals in 3 groups of 4 received a 100 μL bolus of [^67Ga]NeoBOMB1 (37 kBq, corresponding to 10 pmol, or 200 pmol total peptide or 40 nmol for in vivo GRPR-blockade for each of the 3 groups) was injected in the tail vein; animals were euthanized at 4 h pi and dissected. Samples of blood, tumors and organs of interest were collected, weighed and measured for radioactivity in the gamma counter. Intestines and stomach were not emptied of their contents. In another experimental setting, mice in 3 groups of 4 received a 100 μL bolus of [^67Ga]NeoBOMB1 (37 kBq, 200 pmol); they were euthanized at 1 h, 4 h and 24 h pi and biodistribution was conducted as described above. Statistical analysis was conducted using the unpaired two-tailed Student’s t-test; values p < 0.05 were considered statistically significant.

[3] = in vivo; settings: female, SCID, mouse, iv, total radioactivity, Biodistribution, mean ± sd, n = 4; for tissue uptake at 4 h: 4 h pi; for tissue uptake at 1 h: 1 h pi; for tissue uptake at 24 h: 24 h pi
Procedure: as §1, §2

[4] = T-47D tumor, 200 pmol, Tumor, 200 pmol peptide (0.185 MBq/nmol) iv, Table 2 time study
[5] = blood, 200 pmol, 200 pmol peptide (0.185 MBq/nmol) iv, Table 2 time study
[6] = femur, 200 pmol, 200 pmol peptide (0.185 MBq/nmol) iv, Table 2 time study
[7] = heart, 200 pmol, 200 pmol peptide (0.185 MBq/nmol) iv, Table 2 time study
[8] = intestines (not emptied), 200 pmol, Intestines, 200 pmol peptide (0.185 MBq/nmol) iv, Table 2 time study
[9] = kidneys, 200 pmol, 200 pmol peptide (0.185 MBq/nmol) iv, Table 2 time study
[10] = liver, 200 pmol, 200 pmol peptide (0.185 MBq/nmol) iv, Table 2 time study
[11] = lungs, 200 pmol, 200 pmol peptide (0.185 MBq/nmol) iv, Table 2 time study
[12] = muscle, 200 pmol, 200 pmol peptide (0.185 MBq/nmol) iv, Table 2 time study
[13] = pancreas, 200 pmol, 200 pmol peptide (0.185 MBq/nmol) iv, Table 2 time study
[14] = spleen, 200 pmol, 200 pmol peptide (0.185 MBq/nmol) iv, Table 2 time study
[15] = stomach (not emptied), 200 pmol, Stomach, 200 pmol peptide (0.185 MBq/nmol) iv, Table 2 time study

CC(C)CC(CC(C)C)NC(=O)[C@H](Cc1cnc[nH]1)NC(=O)CNC(=O)[C@@H](NC(=O)[C@H](C)NC(=O)[C@H](Cc1c[nH]c2ccccc12)NC(=O)[C@H](CCC(N)=O)NC(=O)[C@@H](Cc1ccccc1)NC(=O)COCC(=O)Nc1ccc(CNC(=O)CN2CCN(CC(=O)O)CCN(CC(=O)O)CCN(CC(=O)O)CC2)cc1)C(C)C [[^67Ga]NeoBOMB1, metal not drawn]
Intact radioligand in mouse circulation ([1]; blood collected 5 min pi): 98% | Intact radioligand in mouse circulation ([1]; blood collected 30 min pi): 90% | Biodistribution, Tumor ([2]; 200 pmol peptide (0.185 MBq/nmol) iv, Table 2 time study): 8.68 ± 2.9 % ID/g | Biodistribution, Tumor ([2]; 40 nmol NeoBOMB1, in vivo GRPR-blockade, iv): 0.64 ± 0.10 % ID/g | tissue uptake at 4 h ([3]; T-47D tumor, 10 pmol, Tumor, 10 pmol peptide (3.7 MBq/nmol) iv): 9.52 ± 2.15 %ID/g | tissue uptake at 1 h [3, 4]: 7.4 ± 0.68 %ID/g | tissue uptake at 4 h ([3]; T-47D tumor, 200 pmol, Tumor, 200 pmol peptide (0.185 MBq/nmol) iv, Table 1 dose study): 7.79 ± 1.54 %ID/g | tissue uptake at 4 h [3, 4]: 8.67 ± 2.88 %ID/g | tissue uptake at 24 h [3, 4]: 7.89 ± 1.13 %ID/g | tissue uptake at 4 h ([3]; T-47D tumor, 40 nmol, Tumor, 40 nmol NeoBOMB1, in vivo GRPR-blockade): 0.6 ± 0.1 %ID/g | tissue uptake at 1 h [3, 5]: 5.78 ± 0.29 %ID/g | tissue uptake at 4 h [3, 5]: 0.52 ± 0.03 %ID/g | tissue uptake at 24 h [3, 5]: 0.15 ± 0.01 %ID/g | tissue uptake at 4 h ([3]; femur, 10 pmol, 10 pmol peptide (3.7 MBq/nmol) iv): 0.58 ± 0.06 %ID/g | tissue uptake at 1 h [3, 6]: 0.73 ± 0.11 %ID/g | tissue uptake at 4 h ([3]; femur, 200 pmol, 200 pmol peptide (0.185 MBq/nmol) iv, Table 1 dose study): 0.28 ± 0.01 %ID/g | tissue uptake at 4 h [3, 6]: 0.37 ± 0.02 %ID/g | tissue uptake at 24 h [3, 6]: 0.24 ± 0.08 %ID/g | tissue uptake at 4 h ([3]; femur, 40 nmol, 40 nmol NeoBOMB1, in vivo GRPR-blockade): 0.31 ± 0.02 %ID/g | tissue uptake at 4 h ([3]; heart, 10 pmol, 10 pmol peptide (3.7 MBq/nmol) iv): 0.26 ± 0.01 %ID/g | tissue uptake at 1 h [3, 7]: 1.94 ± 0.09 %ID/g | tissue uptake at 4 h ([3]; heart, 200 pmol, 200 pmol peptide (0.185 MBq/nmol) iv, Table 1 dose study): 0.34 ± 0.04 %ID/g | tissue uptake at 4 h [3, 7]: 0.52 ± 0.04 %ID/g | tissue uptake at 24 h [3, 7]: 0.22 ± 0.04 %ID/g | tissue uptake at 4 h ([3]; heart, 40 nmol, 40 nmol NeoBOMB1, in vivo GRPR-blockade): 0.38 ± 0.02 %ID/g | tissue uptake at 1 h [3, 8]: 10.6 ± 0.87 %ID/g | tissue uptake at 4 h [3, 8]: 18.5 ± 2.12 %ID/g | tissue uptake at 24 h [3, 8]: 2.31 ± 0.34 %ID/g | tissue uptake at 4 h ([3]; intestines, 10 pmol, Intestines (not emptied), 10 pmol peptide (3.7 MBq/nmol) iv): 16.7 ± 2.18 %ID/g | tissue uptake at 4 h ([3]; intestines, 200 pmol, Intestines (not emptied), 200 pmol peptide (0.185 MBq/nmol) iv, Table 1 dose study): 15.1 ± 1.52 %ID/g | tissue uptake at 4 h ([3]; intestines, 40 nmol, Intestines (not emptied), 40 nmol NeoBOMB1, in vivo GRPR-blockade): 11.1 ± 2.71 %ID/g | tissue uptake at 4 h ([3]; kidneys, 10 pmol, 10 pmol peptide (3.7 MBq/nmol) iv): 3.4 ± 0.45 %ID/g | tissue uptake at 1 h [3, 9]: 7.33 ± 0.47 %ID/g | tissue uptake at 4 h ([3]; kidneys, 200 pmol, 200 pmol peptide (0.185 MBq/nmol) iv, Table 1 dose study): 2.76 ± 0.26 %ID/g | tissue uptake at 4 h [3, 9]: 3.1 ± 0.75 %ID/g | tissue uptake at 24 h [3, 9]: 2.15 ± 0.42 %ID/g | tissue uptake at 4 h ([3]; kidneys, 40 nmol, 40 nmol NeoBOMB1, in vivo GRPR-blockade): 3.95 ± 0.94 %ID/g | tissue uptake at 4 h ([3]; liver, 10 pmol, 10 pmol peptide (3.7 MBq/nmol) iv): 3.37 ± 0.19 %ID/g | tissue uptake at 1 h [3, 10]: 25.7 ± 1.97 %ID/g | tissue uptake at 4 h ([3]; liver, 200 pmol, 200 pmol peptide (0.185 MBq/nmol) iv, Table 1 dose study): 6.5 ± 0.34 %ID/g | tissue uptake at 4 h [3, 10]: 7.05 ± 0.31 %ID/g | tissue uptake at 24 h [3, 10]: 2.26 ± 0.18 %ID/g | tissue uptake at 4 h ([3]; liver, 40 nmol, 40 nmol NeoBOMB1, in vivo GRPR-blockade): 9.67 ± 0.75 %ID/g | tissue uptake at 4 h ([3]; lungs, 10 pmol, 10 pmol peptide (3.7 MBq/nmol) iv): 0.5 ± 0.06 %ID/g | tissue uptake at 1 h [3, 11]: 2.88 ± 0.2 %ID/g | tissue uptake at 4 h ([3]; lungs, 200 pmol, 200 pmol peptide (0.185 MBq/nmol) iv, Table 1 dose study): 0.43 ± 0.06 %ID/g | tissue uptake at 4 h [3, 11]: 0.47 ± 0.04 %ID/g | tissue uptake at 24 h [3, 11]: 0.15 ± 0.02 %ID/g | tissue uptake at 4 h ([3]; lungs, 40 nmol, 40 nmol NeoBOMB1, in vivo GRPR-blockade): 0.42 ± 0.02 %ID/g | tissue uptake at 4 h ([3]; muscle, 10 pmol, 10 pmol peptide (3.7 MBq/nmol) iv): 0.1 ± 0.03 %ID/g | tissue uptake at 1 h [3, 12]: 0.58 ± 0.11 %ID/g | tissue uptake at 4 h ([3]; muscle, 200 pmol, 200 pmol peptide (0.185 MBq/nmol) iv, Table 1 dose study): 0.12 ± 0.01 %ID/g | tissue uptake at 4 h [3, 12]: 0.17 %ID/g | tissue uptake at 24 h [3, 12]: 0.13 ± 0.01 %ID/g | tissue uptake at 4 h ([3]; muscle, 40 nmol, 40 nmol NeoBOMB1, in vivo GRPR-blockade): 0.16 ± 0.06 %ID/g | tissue uptake at 4 h ([3]; pancreas, 10 pmol, 10 pmol peptide (3.7 MBq/nmol) iv): 206 ± 17.4 %ID/g | tissue uptake at 1 h [3, 13]: 32.5 ± 0.78 %ID/g | tissue uptake at 4 h ([3]; pancreas, 200 pmol, 200 pmol peptide (0.185 MBq/nmol) iv, Table 1 dose study): 42.5 ± 1.31 %ID/g | tissue uptake at 4 h [3, 13]: 36.9 ± 3.58 %ID/g | tissue uptake at 24 h [3, 13]: 21.3 ± 2.77 %ID/g | tissue uptake at 4 h ([3]; pancreas, 40 nmol, 40 nmol NeoBOMB1, in vivo GRPR-blockade): 1.17 ± 0.11 %ID/g | tissue uptake at 4 h ([3]; spleen, 10 pmol, 10 pmol peptide (3.7 MBq/nmol) iv): 1.02 ± 0.09 %ID/g | tissue uptake at 1 h [3, 14]: 1.71 ± 0.5 %ID/g | tissue uptake at 4 h ([3]; spleen, 200 pmol, 200 pmol peptide (0.185 MBq/nmol) iv, Table 1 dose study): 0.7 ± 0.09 %ID/g | tissue uptake at 4 h [3, 14]: 0.89 ± 0.12 %ID/g | tissue uptake at 24 h [3, 14]: 0.46 ± 0.08 %ID/g | tissue uptake at 4 h ([3]; spleen, 40 nmol, 40 nmol NeoBOMB1, in vivo GRPR-blockade): 0.79 ± 0.11 %ID/g | tissue uptake at 1 h [3, 15]: 5.89 ± 1.02 %ID/g | tissue uptake at 4 h [3, 15]: 2.66 ± 0.16 %ID/g | tissue uptake at 24 h [3, 15]: 2.07 ± 0.43 %ID/g | tissue uptake at 4 h ([3]; stomach, 10 pmol, Stomach (not emptied), 10 pmol peptide (3.7 MBq/nmol) iv): 4.36 ± 0.56 %ID/g | tissue uptake at 4 h ([3]; stomach, 200 pmol, Stomach (not emptied), 200 pmol peptide (0.185 MBq/nmol) iv, Table 1 dose study): 2.38 ± 0.13 %ID/g | tissue uptake at 4 h ([3]; stomach, 40 nmol, Stomach (not emptied), 40 nmol NeoBOMB1, in vivo GRPR-blockade): 0.42 ± 0.1 %ID/g | tissue uptake at 4 h ([3]; whole blood, 10 pmol, Blood, 10 pmol peptide (3.7 MBq/nmol) iv): 0.53 ± 0.04 %ID/g | tissue uptake at 4 h ([3]; whole blood, 200 pmol, Blood, 200 pmol peptide (0.185 MBq/nmol) iv, Table 1 dose study): 0.42 ± 0.06 %ID/g | tissue uptake at 4 h ([3]; whole blood, 40 nmol, Blood, 40 nmol NeoBOMB1, in vivo GRPR-blockade): 0.46 ± 0.03 %ID/g
